Here are results for one molecule from patent US20220332804A1 (CSL INNOVATION, published 2022).

What all share (experiment): SPR, KD relative to WT C2;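 also: biacore SPR at 37 °C, anti-C2 mAbs captured on anti-human IgG chips with alanine or serine point mutants of C2 as analyte, KD from 1:1 fit compared with wild-type C2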
In one test the target is T1, human C2 H451A (human, UniProt P06681 21-752).
T1 sequence: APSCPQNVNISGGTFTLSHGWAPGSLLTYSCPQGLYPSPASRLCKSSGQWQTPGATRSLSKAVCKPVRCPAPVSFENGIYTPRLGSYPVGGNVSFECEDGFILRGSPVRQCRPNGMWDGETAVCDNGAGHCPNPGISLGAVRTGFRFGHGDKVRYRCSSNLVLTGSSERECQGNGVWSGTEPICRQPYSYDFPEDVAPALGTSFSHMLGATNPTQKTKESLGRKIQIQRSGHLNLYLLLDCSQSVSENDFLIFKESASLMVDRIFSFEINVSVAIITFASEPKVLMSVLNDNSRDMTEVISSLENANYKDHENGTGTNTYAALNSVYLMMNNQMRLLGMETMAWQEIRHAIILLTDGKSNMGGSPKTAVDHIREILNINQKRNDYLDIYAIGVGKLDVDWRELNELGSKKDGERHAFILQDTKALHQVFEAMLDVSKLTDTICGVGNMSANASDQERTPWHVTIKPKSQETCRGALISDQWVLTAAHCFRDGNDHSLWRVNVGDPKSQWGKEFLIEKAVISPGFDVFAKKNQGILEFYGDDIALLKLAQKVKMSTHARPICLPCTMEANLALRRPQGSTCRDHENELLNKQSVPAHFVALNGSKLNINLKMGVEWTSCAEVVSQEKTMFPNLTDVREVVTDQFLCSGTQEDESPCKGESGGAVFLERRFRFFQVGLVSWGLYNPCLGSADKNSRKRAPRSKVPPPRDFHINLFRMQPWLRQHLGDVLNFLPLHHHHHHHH

The next test deals with T2, human C2 E275A (human, UniProt P06681 21-752).
T2 sequence: T1 sequence with E255A, A431H

A further test addresses T3, human C2 K457A (human, UniProt P06681 21-752).
T3 sequence: T1 sequence with A431H, K437A

In another test the target is T4, human C2 N268A (human, UniProt P06681 21-752).
T4 sequence: T1 sequence with N248A, A431H

Where a chain is given by its changes, count along the chain named.

B1: RF16-242 (antibody, human IgG4 S228P, lambda, V domains shown)
VH: EVQLLQSGAEVKKPGESLKISCKGSGYSFTSYWIGWVRQMPGKGLEWMGIIYPGDSDTRYSPSFQGQVTISADKSISTAYLQWSSLKASDTAMYYCARRGHYGDYFDYWGQGTLVTVSS
VL: SYELTQPPSVSVSPGQTARITCSGDALPKKYAYWYHQKSGQAPVLVIYEDRRRPSEIPERFSGSSSGTMATLTITGAQVEDEGVYFCYSRDRAGNQRVFGGGTQLTVLG
notes: pH-dependent anti-C2 antibody from a phage display library
B1: the Fold diff came to 3 fold in the test with human C2 H451A, 6 fold with human C2 E275A, 33 fold with human C2 K457A and 2 fold with human C2 N268A.
